The nature of the series: soluble on expression in E. coli; label from the status in PepcDB or PDB records.
“MDMNSFSPMMPTSPLSMINQIKFEDEPDLKDLFITVDEPESHVTTIETFITYRIITKTTRGEFDSSEFEVRRRYQDFLWLKGKLEEAHPTLIIPPLPEKFIVKGMVERFNDDFIETRRKALHKFLNRIADHPTLTFNEDFKIFLTAQAWELSSHKKQGPGLLSRMGQTVRAVASSMRGVKNRPEEFMEMNNFIELFSQRINLIDKISQRIYKEEREYFDEMKEYGPIHILWSASEEDLVDTLKDVASCIDRCCKATEKRMSGLSEALLPVVHEYVLYSEMLMGVMKRRDQIQAELDSKVEVLTYKKADTDLLPEEIGKLEDKVECANNALKADWERWKQNMQNDIKLAFTDMAEENIHYYEQCLATWESFLTSQTNLHLEEASEDKP”: the “soluble on expression in E. coli” value is “soluble”. In the case of “MDNEFTSPVYGVKAVPVERIRANSYNPNVTAPPEMRLLELSIWEDGYTMPCVCYYIEKEDVYELVDGYHRYKVMMTSPRIYKRENGLLPVTVIRKDLAERMASTIRHNRARGMHKIELMTRLVGELTRSGMSDSWIRRNLGMDKDELLRLKQISGLAELFADKEFRKAVE” it was “not soluble”; in that of “MDNEKGLLIVLSGPSGVGKGTVRKRIFEDPSTSYKYSISMTTRQMREGEVDGVDYFFKTRDAFEALIKDDQFIEYAEYVGNYYGTPVQYVKDTMDEGHDVFLEIEVEGAKQVRKKFPDALFIFLAPPSLEHLRERLVGRGTESDEKIQSRINEARKEVEMMNLYDYVVVNDEVELAKNRIQCIVEAEHLKRERVEAKYRKMILEAKK”, “soluble”; in that of “MDNLLNEKKLTIFTSNEIQDNLNRVLKDYEQNGIIGLNGYLNQANRISLLNELEIMQKDAEQDIARYWNNKIIHFYSKDPLKPESVDREYVTEPYFQASSNKAHVFYEVIDNMRVVNRIGHGMHLINRYPMMQRAVYDSPVLLDLLKGIGFKKPICHLSVYIPKYPNGIGSEVRPHQESTFAFTEPQSVVVLWVALEDALIENACMYGVLGSNHWPLKWVSKVDRETKTRHFEQVHQLHIPDFMTEREFYTALEVKAGDALLFHGNFVHCSPMNTSKNSRKALSFQFIETYEVDYPETNWLYPPNKVYLYLEHHHHHH”, “not soluble”. Turning to “MDNNPIENFMRTTMENIKGMIDVNTIVGEPIKNTDGSLIIPISKVSFGFASGGSEFKSQEDSQENKKIYPFGGGAGAGVSLKPIAFLVIKDDSVRLLPLNAENTYEKVVDMIPQLIEMCKGFSHKSKKEKCCNDDKKKDSNSTNGNTDNANQNSQQQSLEHHHHHH”, the “soluble on expression in E. coli” value is “soluble”. Turning to “MDNTYRDEKVNGCGPGDVNLMLELLEKGEKIGGKSADQSSLFVALCRSVGIPAREVFGIRVLPSSFSEGLSIKPGSKDITKAQHCRAEFWAGEWIPVDPADVTKLILKEKLPRNHPRVNFARRYFFGNWDPHWIAYNWGRDFVLEPPQRVKPLNLFGYPYAEVKGEPLNWLEPKSFVYRIKLVRA”, the “soluble on expression in E. coli” value was “not soluble”. In the case of “MDPDKKKMFEVIIKKIQQQSSALEEAMKAQKPKVDCSMSREMCSPSGLIIIMERIYEKEFLADMARLNVLPVDVLTRVSAQDSIATEEAKGRLLNESRDVLSEWLDHNHGKDARDHSVFDDLAKRRIFYLAGPFLQSQWHLECSVISSSAVPAARNIVWNDHLRIRRDAAVAAAAAVNNTAGLADMDQGTRIELPKSKHQWSHQDASRHIKFVKSSVGKFFKKKIIQKFSTGGSQNLFFFYTSVCVQDIALNCTSPFWEINNEYNPVIKFSKIRFPADISVINGFRMPFLKM” it was “not soluble”; in that of “MDPFGILYTDLYQLTMGQVYFRMGLHEKEALFEAFYRRNPDYGAHQAGYTVFAGLDPLLSWMEEARFGEEEIAALRNLKSRSGKPLFAEDYLRYLKAMGGFSGLTLRALPEGRVAHPQVPLVSVEGPLLQAQLLETALLNRLNYETLIATKASRVREAAGEAVVLEFGLRRAPAKGGESATRASLIGGANRSSAVSLSHLLGLPASGTHAHSLVQAFMALGYSEEDAFRAFAEVFPDDAILLLDTVDTLHSGLPHAIRVFEELRRKGHRPVGVRIDSGDLAHLAIQVARELDRAGFPEVLIVLSGDLDELVIWQIKSQILEEAPRYGVDPDRLLKRLVYGVGTRMVVSWGAPALGGVYKLVAVRENGTWAPAMKVSNSLEKVLNPGHKRVYRVYDERGLATADLLALAEEEVREDAPLTLRHPTDPTKRRTLRPGSFRLEPLLEEVYRGRRLFPPLPLEELRKRRDRDVALLDPGVRRLVNPHVYHVSLTERLFALKEELVRRLEG”, “soluble”. As for “MDPLLTVLKERMRACQRRVSDRPRRQVVAIEWIDPPMASGNWIPELIALAGGENMLGTAGKHSPYIEWSTLLAIDPEVILVMPCGFDLERTRQELDQALQTYPQWQQLRALQTGQLYILDGNAYFNRPGPRLVDSLEILVEILHPCPEPKFHGVGWRPYVGPSMAKMSDEGLEHHHHHH”, the “soluble on expression in E. coli” value is “not soluble”. “MDPLSRDENYIQRLTPEMWREIKAASPEVTAEMLDDLKHGNTYYTGVETDKGVLIFSRDIIGEGQFSDYMYKYIENDFFASEFVLKSLAVHELRGWPSLMEGKLNRCHNRFGWWGDGETIRRAFQDRSVLKNVTDSETYDFTPPPHGRTITG”: the “soluble on expression in E. coli” value is “not soluble”.

Consider “MDPSSENNSPMVSPNDDKIVKITVSSVMQGVKQIVVEMKDKETVSILKNRIEQETEVLTNRQVLLFKGMELKDNNKTMTDCGINSDAKITMNVKMSTGIVTNPTTTDILLMMPPIFPTNQDQLRKEIKGMHTVHRKPKKMSGIDANASLWTPEKQMENEFTRNRMKTLLRRKKHAPILSGTPVDSEIGSAQTFSPVATPPGELSSPSTVSSHVSSGSEPESDAEVVTEKELKLFFDPPETIEEHKQCRRSMVLAPSSEEELLENLKKFEAERKTKCNTCFKKLSAAQQTMHCKCLRIFCDRHRHPKNHTCVIDYKQDGRNKLKKNNSKVGDGGWRKAKFES”, for which the “soluble on expression in E. coli” value is recorded as “not soluble”. In the case of “MDPSSKPLREIPGSYGIPFFQPIKDRLEYFYGTGGRDEYFRSRMQKYQSTVFRANMPPGPFVSSNPKVIVLLDAKSFPILFDVSKVEKKDLFTGTYMPSTKLTGGYRVLSYLDPSEPRHAQLKNLLFFMLKNSSNRVIPQFETTYTELFEGLEAELAKNGKAAFNDVGEQAAFRFLGRAYFNSNPEETKLGTSAPTLISSWVLFNLAPTLDLGLPWFLQEPLLHTFRLPAFLIKSTYNKLYDYFQSVATPVMEQAEKLGVPKDEAVHNILFAVCFNTFGGVKILFPNTLKWIGLAGENLHTQLAEEIRGAIKSYGDGNVTLEAIEQMPLTKSVVYESLRIEPPVPPQYGKAKSNFTIESHDATFEVKKGEMLFGYQPFATKDPKVFDRPEEYVPDRFVGDGEALLKYVWWSNGPETESPTVENKQCAGKDFVVLITRLFVIELFRRYDSFEIELGESPLGAAVTLTFLKRASI” it was “soluble”; in that of “MDQGMFYLSAAYIVKTMISGGNLLKEYIEERAVAIANYIIDYNATVRQTARKFGISKSTVHKDVTDRLENINPSLAAQARVVLDINKAERHIRGGMATKEKYQHQLQACSRK”, “not soluble”. In the case of “MDQPISVTLSSTTDPLWRSCHEYDNEMVITVNGRRIFPTLEYTVTGLDTFKLYSMCMHLDLVDDKKLRFTGGQWAESVSTEKKDPPRKVWHHNGSQTGKDWMLRNVSFDQIRITNRKSKEDGNASYVHLLTQHRYIPVLTIYEGDQLVHTARIPHSQFISVTAYHKGELNTLKTNNNPYSTGSRKDRRRERQSPVYSEGTSSEKSISPPPAKKIKDMAPALPDYSVISKPNLLQSLIFPMIAEQPSTSQSPPAPPVFPFNPDLQMQMLQPFMLPQFGFPCGFPSINPFMNPFLTPFTSMFPTPTVSPDGEGVKLEPEAFVEV” it was “not soluble”; in that of “MDRVDCIVIGAGVVGLAVARKLAQAGREVIVLEEAEAIGTITSSRNSEVIHAGIYYRAGSWMARMCVNGKHALYRYCGERGIPHKNCGKLIVATNAKETEKLQSIKAHAEANGVLDMQLLTGEAARALEPALACDAALLSPSTGIIDSHAYMLSLRGEAEEAGAAFAFHTPLIRAKAAAGMIEVEAGGEAPMALQCSLLVNAAGLAATTVARNIDGMPLDRIPPAYLAKGNYFSCNAKAPFSHLIYPVPEPGGLGVHLTLDMAGQARFGPDVEWIETINYEVDPSRAERFYPAIRRYWPTLPDGALMPSYSGIRPKIVPPAVATQDFLMQGPRDHGVAGLINLFGIESPGLTSSLAIADHVAELANILEHHHHHH”, “not soluble”; in that of “MDSDHNHINGDLAHGFENMVCVRCNDGFSMQDQMVNSSGQVWHSECFVCAQCFEPFPDGIYFEYEGRKYCEHDFHVLFSPCCGKCNEFIVGRVIKAMNASWHPGCFCCEICNKQLADVGFLRNAGRALCRECNEREKAAGHGRYVCHKCHAMIDDGQHIKFRGDSFHPYHFKCKRCNNELTTASREVNGELYCLRCHDTMGIPICGACHRPIEERVIAALGKHWHVEHFVCSVCEKPFLGHRHYERKGLPYCEQHFHKLFGNLCFKCGDPCCGEVFQALQKTWCVKCFSCSFCDKKLDQKTKFYEFDMKPTCKRCYDRFPTELKKRISESLKDRDVENQRRSMSPGPK”, “not soluble”.

Regarding “MDSDLKKVQKNSDQKQVSKSKTATAPTEPFNSKATELPSILKPKFPSDKVLKKKKSGDMFDLVGQIVIDIVDDNPDDDDRQDEATTVDTVQEGIGATVDVTLVEDVAEKAHEPASTPNVADRLQKPVAKDDNSAPVEEANRKKKEGKDPKNSEEAKKNSKKGKNGTARRSALKGVTIPPVAASLPCPPPPPPLSERKKNVGPKPCVGPAQKNLSSQRKHSSKRNRKGLLRNVAKLWGRKSDGIANPTKAMLSKKYVPPDYGVNPVDFMPDLECYFSKNDITVRDKNKCSKGEVFVEKLPFWLARLPSDDDIPKAQIQAHRPLKQAFEGNPSLLLPKCPRTLPFCEPDSDTLEKFKQVDKQMGTDVPEQASKRLCTNTFYGTLMFEKDKSASEEVKKKKEEPKLKSLGEESKLETKPKPYDFLQKKSTKTTGERGRQKPQLQKVPPQKLETGANVQKVKKMSARGLKVEMYYKLAEKNEAETSDVSILIDGHKRKFAVICNGIGREMVDLHYDSKKFPRIFSRERHLYVMFSESTSDGFRLTFGATEREQFLRIMHSLGCLLDTAIVKFSQQSSSSQPPPMRRDSTAVFNNSYNQYTSFQQASQPRVFSTIKLELSGDSCNSAFQPSQPTGFPDNQLLTIKKSSSNQISLSVEVADKCIQTEDLVDLLADDEYCMRKALRKMIENPSFIKAVAAAENTLQYIPQAEQEGLEDVTEPPINDIFFDRFHQPQLEQHDSVPED”, the “soluble on expression in E. coli” value was “soluble”. Take “MDSIYRDAGYDVLKVSAKTGEGIDELVDYLEGFICILAGPSGVGKSSILSRLTGEELRTQEVSEKTERGRHTTTGVRLIPFGKGSFVGDTPGFSKVEATMFVKPREVRNYFREFLRYQCKYPDCTHTNEPGCAVKEAVKNGEISCERYKSYLKIIKVYLEEIKELCREDLEHHHHHH”: the “soluble on expression in E. coli” value is “not soluble”.

Take “MDSKILTMFNQGKHEEAIQAAVKAIDAAPDDPKRYAMLATMLISIKALDQAGELLAKARQLFPEDLELQYTAGLFAYAQADFAAAVSWFAKVRTDQTLKNDATYMLALSYQQAGQPTKALAFALTAHDLAPKQLDTALLAADLLMANDVFDAAARVLKPLLATEQPQVLFTYGMALSAAGKDGSHYLNKAKALDPKGYDQKANIVADINRFLRLQEGQDGHALEHHHHHH”: the “soluble on expression in E. coli” value is reported as “soluble”.

(Values after the DeepSol protein solubility set.)
